Measured values taken from US20220289845A1.

Key:
cynomolgus CD47 [1] = test: SPR; assay 1
human CD47 [2] = molecular target: human CD47 (UniProt Q08722); test: SPR; assay 1
cynomolgus CD47 [3] = test: SPR; average
human CD47 [4] = molecular target: human CD47 (UniProt Q08722); test: SPR; average
cynomolgus CD47 [5] = test: SPR; assay 2
human CD47 [6] = molecular target: human CD47 (UniProt Q08722); test: SPR; assay 2

Chain of human CD47 (Q08722 19-142): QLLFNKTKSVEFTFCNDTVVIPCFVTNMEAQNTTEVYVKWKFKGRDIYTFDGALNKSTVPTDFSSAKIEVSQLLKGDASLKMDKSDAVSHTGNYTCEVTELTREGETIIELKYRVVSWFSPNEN
Chain of cynomolgus CD47 (Q08722 other isoform, or with tags, fused parts or gaps): as the sequence (Q08722 19-142) above, with V59A, T61A, D62N counted along it

Kd (cynomolgus CD47 [1]): 0.0121 nM | Kd (human CD47 [2]): 0.0143 nM | Kd (cynomolgus CD47 [3]): 0.01 nM | Kd (human CD47 [4]): 8 pM | Kd (cynomolgus CD47 [5]): 7.24 pM | Kd (human CD47 [6]): 2.02 pM
Substance: Hu5F9-G4
